Laboratory results: patent US20250084169A1 (published 2025)
Residue numbers refer to the chain shown, from its start.

Experiments:
[1] = target: recombinant human Fc gamma RIIIa (CD16a) 158F (human, UniProt P08637 17-208)
[2] = target: recombinant human Fc gamma RIIIa (CD16a) 158V (human, UniProt P08637 17-208)
[3] = target: recombinant human Fc gamma RIIIb (CD16b) (human, UniProt O75015 17-200)
[4] = target: T1, recombinant human Fc gamma RIIa (CD32a) 131H (human, UniProt P12318 36-218)
T1 sequence (looked up): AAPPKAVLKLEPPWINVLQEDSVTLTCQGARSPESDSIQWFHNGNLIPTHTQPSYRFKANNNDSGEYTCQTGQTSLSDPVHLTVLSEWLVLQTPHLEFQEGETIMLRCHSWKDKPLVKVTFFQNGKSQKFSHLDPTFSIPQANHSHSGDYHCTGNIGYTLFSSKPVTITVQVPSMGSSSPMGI

[5] = target: T2, recombinant human Fc gamma RIIa (CD32a) 131R (human, UniProt P12318 36-218)
T2 sequence (looked up): T1 sequence (looked up) with H132R

[6] = target: T3, recombinant human Fc gamma RIIb/c (CD32b/c) (human, UniProt P31994 46-217)
T3 sequence (looked up): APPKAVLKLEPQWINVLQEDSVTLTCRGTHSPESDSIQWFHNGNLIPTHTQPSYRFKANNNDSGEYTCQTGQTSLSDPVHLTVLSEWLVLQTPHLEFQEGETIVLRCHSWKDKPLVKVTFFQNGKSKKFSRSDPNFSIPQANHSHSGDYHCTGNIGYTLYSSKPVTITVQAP

[7] = target: recombinant human Fc gamma RI (CD64) (human, UniProt P12314 16-288)
Sequence of recombinant human Fc gamma RI (CD64) (P12314 16-288 limits assumed): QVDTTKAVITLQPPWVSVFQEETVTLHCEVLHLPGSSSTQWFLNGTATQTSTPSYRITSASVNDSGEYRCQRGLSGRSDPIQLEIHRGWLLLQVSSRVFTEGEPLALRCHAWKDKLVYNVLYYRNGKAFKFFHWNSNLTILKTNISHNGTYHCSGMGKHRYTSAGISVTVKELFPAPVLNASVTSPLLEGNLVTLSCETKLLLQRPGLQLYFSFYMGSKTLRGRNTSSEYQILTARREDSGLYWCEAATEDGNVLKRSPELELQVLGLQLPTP

CD20 Lipoparticles = target: T4, CD20 Lipoparticles (Homo sapiens (Human), UniProt P11836 1-297)
T4 sequence: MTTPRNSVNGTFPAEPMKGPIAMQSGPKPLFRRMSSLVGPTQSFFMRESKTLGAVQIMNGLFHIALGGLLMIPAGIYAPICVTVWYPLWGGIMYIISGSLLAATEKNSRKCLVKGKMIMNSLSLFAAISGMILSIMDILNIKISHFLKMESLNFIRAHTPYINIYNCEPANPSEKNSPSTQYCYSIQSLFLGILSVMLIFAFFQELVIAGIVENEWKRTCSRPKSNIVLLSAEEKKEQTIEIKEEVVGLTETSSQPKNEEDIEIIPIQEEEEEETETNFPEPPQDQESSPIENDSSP

Sequence of recombinant human Fc gamma RIIIb (CD16b) (O75015 17-200 limits assumed): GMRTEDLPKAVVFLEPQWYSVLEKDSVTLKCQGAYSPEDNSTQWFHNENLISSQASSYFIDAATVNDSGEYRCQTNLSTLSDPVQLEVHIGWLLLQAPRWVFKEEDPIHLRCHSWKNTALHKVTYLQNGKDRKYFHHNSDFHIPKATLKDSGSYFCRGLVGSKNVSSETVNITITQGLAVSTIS
Sequence of recombinant human Fc gamma RIIIa (CD16a) 158F (P08637 17-208 limits assumed): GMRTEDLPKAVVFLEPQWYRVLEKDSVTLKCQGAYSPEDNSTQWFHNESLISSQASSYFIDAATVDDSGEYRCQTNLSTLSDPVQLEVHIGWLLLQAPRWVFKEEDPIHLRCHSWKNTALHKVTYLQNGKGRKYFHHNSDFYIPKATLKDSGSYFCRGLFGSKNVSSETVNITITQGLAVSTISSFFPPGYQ
Sequence of recombinant human Fc gamma RIIIa (CD16a) 158V (P08637 17-208 F176V limits assumed): as the sequence (P08637 17-208 limits assumed) above, with F160V counted along it

B1: Rc66SIDE-P28-Rc66SIDE (antibody, human IgG1, kappa)
light: QIVLSQSPAILSASPGEKVTMTCRASSSVSYIHWFQQKPGSSPKPWIYATSNLASGVPVRFSGSGSGTSYSLTISRVEAEDAATYYCQQWTSNPPTFGGGTKLEIKRTVAAPSVFIFPPSDEQLKSGTASVVCLLNNFYPREAKVQWKVDNALQSGNSQESVTEQDSKDSTYSLSSTLTLSKADYEKHKVYACEVTHQGLSSPVTKSFNRGEC
heavy: QVQLQQPGAELVKPGASVKMSCKASGYTFTSYNMHWVKQTPGRGLEWIGAIYPGNGDTSYNQKFKGKATLTADKSSSTAYMQLSSLTSEDSAVYYCARSTYYGGDWYFNVWGAGTTVTVSAASTKGPSVFPLAPSSKSTSGGTAALGCLVKDYFPEPVTVSWNSGALTSGVHTFPAVLQSSGLYSLSSVVTVPSSSLGTQTYICNVNHKPSNTKVDKKAEPKSCDKTHTCPPCPAPELLGGPDVFLFPPKPKDTLMISRTPEVTCVVVDVSHEDPEVKFNWYVDGVEVHNAKTKPREEQYNSTYRVVSVLTVLHQDWLNGKEYKCKVSNKALPAPEEKTISKAKGQPREPQVYVLPPSRDELTKNQVSLLCLVKGFYPSDIAVEWESNGQPENNYLTWPPVLDSDGSFFLYSKLTVDKSRWQQGNVFSCSVMHEALHNHYTQKSLSLSPGK
chain: CPPCPAPELLGGPDVFLFPPKPKDTLMISRTPEVTCVVVDVSHEDPEVKFNWYVDGVEVHNAKTKPREEQYNSTYRVVSVLTVLHQDWLNGKEYKCKVSNKALPAPEEKTISKAKGQPREPQVYVYPPSRDELTKNQVSLTCLVKGFYPSDIAVEWESNGQPENNYKTTPPVLDSDGSFALVSKLTVDKSRWQQGNVFSCSVMHEALHNHYTQKSLSLSPGK
Kd [1]: 6.62 nM
Kd [2]: 4.98 nM
Kd [3]: 5.64 nM
Kd [4]: 5.42 nM
Kd [5]: 8.11 nM
Kd [6]: 7.28 nM
Kd [7]: 1.14 nM
Kd (CD20 Lipoparticles): < 0.001 nM
